# Earlier results, collected in paper PMC10518620.
# pKd: −log10 of the molar value.
# Molecular target: C3aR (Homo sapiens) (UniProt Q16581)
# Chain of UniProt Q16581 (Q16581 whole entry): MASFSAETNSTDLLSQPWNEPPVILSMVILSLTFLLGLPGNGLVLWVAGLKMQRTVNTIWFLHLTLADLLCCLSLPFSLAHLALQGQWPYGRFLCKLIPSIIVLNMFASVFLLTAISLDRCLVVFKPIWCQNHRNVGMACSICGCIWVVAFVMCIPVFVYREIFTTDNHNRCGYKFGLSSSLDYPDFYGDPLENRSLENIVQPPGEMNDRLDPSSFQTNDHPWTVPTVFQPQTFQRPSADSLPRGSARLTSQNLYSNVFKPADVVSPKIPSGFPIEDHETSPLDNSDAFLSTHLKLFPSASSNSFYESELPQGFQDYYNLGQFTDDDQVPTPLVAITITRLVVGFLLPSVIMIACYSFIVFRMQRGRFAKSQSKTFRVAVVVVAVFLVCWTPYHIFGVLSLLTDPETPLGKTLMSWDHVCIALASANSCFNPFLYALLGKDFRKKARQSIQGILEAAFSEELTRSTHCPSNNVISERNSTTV
substance,measurement,value
C3a C3a (from UniProt P01024),pKd,9.00
